Measured values taken from US20220041658A1 (PROTAGONIST THERAPEUTICS, published 2022).
Starred links: 1 amine or outer side, 2 acyl side, 3 side chain; linkers in the order of their positions; H or OH if unused. Positions of bridges follow the written chain, without caps; N, C: chain ends. Non-standard residues stand in square brackets, D forms with d. Trp(7-nPr) = CCCc1cccc2c(C[C@H](N[*:1])C(=O)[*:2])c[nH]c12; Trp(7-Me) = Cc1cccc2c(C[C@H](N)C(=O)O)c[nH]c12; Trp(1-Me) = Cn1cc(C[C@H](N)C(=O)O)c2ccccc21; 2Nal = N[C@@H](Cc1ccc2ccccc2c1)C(=O)O; AEF = NCCOc1ccc(C[C@H](N)C(=O)O)cc1; Cit = NC(=O)NCCC[C@H](N)C(=O)O; Pen = CC(C)(S)[C@H](N)C(=O)O; αMeK = C[C@](N)(CCCCN)C(=O)O; βAla = NCCC(=O)O

B1: Peptide of SEQ ID NO: 263 (peptide)
peptide: Ac-[Pen]NT[Trp(7-Me)][Cit][Pen][AEF][2Nal][αMeK]K(Ac)N[dT]-NH2
modifications: disulfide 1-6
SMILES: CC(=O)NCCCC[C@H](NC(=O)[C@](C)(CCCCN)NC(=O)[C@H](Cc1ccc2ccccc2c1)NC(=O)[C@H](Cc1ccc(OCCN)cc1)NC(=O)[C@H]1NC(=O)[C@H](CCCNC(N)=O)NC(=O)[C@H](Cc2c[nH]c3c(C)cccc23)NC(=O)[C@H]([C@@H](C)O)NC(=O)[C@H](CC(N)=O)NC(=O)[C@@H](NC(C)=O)C(C)(C)SSC1(C)C)C(=O)N[C@@H](CC(N)=O)C(=O)N[C@@H](C(N)=O)[C@H](C)O
B2: Peptide of SEQ ID NO: 273 (peptide)
peptide: XNTXKXXXXEXX
modifications: Ac-[Pen]-N-T-[W(7-Me)]-[Lys(Ac)]-[Pen]-Phe[4-(2-aminoethoxy)]-[2-Nal]-[a-MeLys]-E-[bA]-[bA]-NH2; Pen-Pen disulfide
B3: Peptide of SEQ ID NO: 268 (peptide)
peptide: Ac-[Pen]NT[Trp(7-Me)][Cit][Pen][AEF][2Nal][αMeK]K(Ac)[βAla][βAla]-NH2
modifications: disulfide 1-6
SMILES: CC(=O)NCCCC[C@H](NC(=O)[C@](C)(CCCCN)NC(=O)[C@H](Cc1ccc2ccccc2c1)NC(=O)[C@H](Cc1ccc(OCCN)cc1)NC(=O)[C@H]1NC(=O)[C@H](CCCNC(N)=O)NC(=O)[C@H](Cc2c[nH]c3c(C)cccc23)NC(=O)[C@H]([C@@H](C)O)NC(=O)[C@H](CC(N)=O)NC(=O)[C@@H](NC(C)=O)C(C)(C)SSC1(C)C)C(=O)NCCC(=O)NCCC(N)=O
B4: Peptide of SEQ ID NO: 283 (peptide)
peptide: Ac-[Pen]NT[Trp(7-Me)]Q[Pen][AEF][Trp(1-Me)][αMeK]K(Ac)N[βAla]-NH2
modifications: disulfide 1-6
B5: Peptide of SEQ ID NO: 288 (peptide)
peptide: XNTXKXXXXKNL
modifications: Ac-[Pen]-N-T-[W(7-OMe)]-[Lys(Ac)]-[Pen]-Phe[4-(2-aminoethoxy)]-[2-Nal]-[a-MeLys]-[Lys(Ac)]-N-[(D)Leu]-NH2; Pen-Pen disulfide
B6: Peptide of SEQ ID NO: 255 (peptide)
peptide: XNTXKXXXXKNI
modifications: Ac-[Pen]-NT-[W(7-Me)]-[Lys(Ac)]-[Pen]-Phe[4-(2-aminoethoxy)]-[2-Nal]-[a-MeLys]-[Lys(Ac)]-N-I-NH2; Pen-Pen disulfide
B7: Peptide of SEQ ID NO: 281 (peptide)
peptide: Ac-[Pen]NT[Trp(7-Me)][Cit][Pen][AEF][2Nal][αMeK][Cit][βAla][βAla]-NH2
modifications: disulfide 1-6
SMILES: CC(=O)N[C@@H]1C(=O)N[C@@H](CC(N)=O)C(=O)N[C@@H]([C@@H](C)O)C(=O)N[C@@H](Cc2c[nH]c3c(C)cccc23)C(=O)N[C@@H](CCCNC(N)=O)C(=O)N[C@H](C(=O)N[C@@H](Cc2ccc(OCCN)cc2)C(=O)N[C@@H](Cc2ccc3ccccc3c2)C(=O)N[C@@](C)(CCCCN)C(=O)N[C@@H](CCCNC(N)=O)C(=O)NCCC(=O)NCCC(N)=O)C(C)(C)SSC1(C)C
B8: Peptide of SEQ ID NO: 266 (peptide)
peptide: Ac-[Pen]NT[Trp(7-Me)][Cit][Pen][AEF][2Nal][αMeK]K(Ac)NY-NH2
modifications: disulfide 1-6
SMILES: CC(=O)NCCCC[C@H](NC(=O)[C@](C)(CCCCN)NC(=O)[C@H](Cc1ccc2ccccc2c1)NC(=O)[C@H](Cc1ccc(OCCN)cc1)NC(=O)[C@H]1NC(=O)[C@H](CCCNC(N)=O)NC(=O)[C@H](Cc2c[nH]c3c(C)cccc23)NC(=O)[C@H]([C@@H](C)O)NC(=O)[C@H](CC(N)=O)NC(=O)[C@@H](NC(C)=O)C(C)(C)SSC1(C)C)C(=O)N[C@@H](CC(N)=O)C(=O)N[C@@H](Cc1ccc(O)cc1)C(N)=O
B9: Peptide of SEQ ID NO: 280 (peptide)
peptide: Ac-[Pen]NTX[Cit][Pen][AEF][2Nal][αMeK]K(Ac)[βAla][βAla]-NH2
modifications: disulfide 1-6; not fully specified (residue 4); printed as Ac-[Pen]-N-T-[W(1-Me)]-[Cit]-[Pen]-Phe[4-(2-aminoethoxy)]-[2-Nal]-[a-MeLys]-[Lys(Ac)]-[bA]-[bA]-NH2, Pen-Pen disulfide
B10: Peptide of SEQ ID NO: 285 (peptide)
peptide: Ac-[Pen]NT[Trp(7-nPr)]K(Ac)[Pen][AEF][2Nal][αMeK]K(Ac)N[dL]-NH2
modifications: disulfide 1-6
SMILES: CCCc1cccc2c(C[C@@H]3NC(=O)[C@H]([C@@H](C)O)NC(=O)[C@H](CC(N)=O)NC(=O)[C@@H](NC(C)=O)C(C)(C)SSC(C)(C)[C@@H](C(=O)N[C@@H](Cc4ccc(OCCN)cc4)C(=O)N[C@@H](Cc4ccc5ccccc5c4)C(=O)N[C@@](C)(CCCCN)C(=O)N[C@@H](CCCCNC(C)=O)C(=O)N[C@@H](CC(N)=O)C(=O)N[C@H](CC(C)C)C(N)=O)NC(=O)[C@H](CCCCNC(C)=O)NC3=O)c[nH]c12
B11: Peptide of SEQ ID NO: 275 (peptide)
peptide: XNTXQXXXXKNX
modifications: Ac-[Pen]-N-T-[W(7-Me)]-Q-[Pen]-Phe[4-(2-aminoethoxy)]-[2-Nal]-[Spiral_Pip]-[Lys(Ac)]-N-[bA]-NH2; Pen-Pen disulfide
B12: Peptide of SEQ ID NO: 279 (peptide)
peptide: XNTXQXXXXXXX
modifications: Ac-[Pen]-N-T-[W(7-Me)]-Q-[Pen]-Phe[4-(2-aminoethoxy)]-[2-Nal]-[a-MeLys]-[Cit]-[bA]-[bA]-NH2; Pen-Pen disulfide
B13: Peptide of SEQ ID NO: 257 (peptide)
peptide: Ac-[Pen]NT[Trp(7-Me)][Cit][Pen][AEF][2Nal][αMeK]K(Ac)N[dF]-NH2
modifications: disulfide 1-6
SMILES: CC(=O)NCCCC[C@H](NC(=O)[C@](C)(CCCCN)NC(=O)[C@H](Cc1ccc2ccccc2c1)NC(=O)[C@H](Cc1ccc(OCCN)cc1)NC(=O)[C@H]1NC(=O)[C@H](CCCNC(N)=O)NC(=O)[C@H](Cc2c[nH]c3c(C)cccc23)NC(=O)[C@H]([C@@H](C)O)NC(=O)[C@H](CC(N)=O)NC(=O)[C@@H](NC(C)=O)C(C)(C)SSC1(C)C)C(=O)N[C@@H](CC(N)=O)C(=O)N[C@H](Cc1ccccc1)C(N)=O
B14: Peptide of SEQ ID NO: 286 (peptide)
peptide: Ac-[Pen]NT[Trp(7-i-Pr)]K(Ac)[Pen][AEF][2Nal][αMeK]K(Ac)N[dL]-NH2
modifications: disulfide 1-6 (inferred)
B15: Peptide of SEQ ID NO: 270 (peptide)
peptide: XNTXKXXXXKXX
modifications: Ac-[Pen]-N-T-[W(7-Me)]-[Lys(Ac)]-[Pen]-Phe[4-(2-aminoethoxy)]-[2-Nal]-[a-MeLys]-[Lys(Ac)]-[bA]-[bA]-NH2; Pen-Pen disulfide

Molecular target: T1, interleukin-23 receptor (IL-23R) (human, UniProt Q5VWK5 24-629)
T1 sequence (looked up): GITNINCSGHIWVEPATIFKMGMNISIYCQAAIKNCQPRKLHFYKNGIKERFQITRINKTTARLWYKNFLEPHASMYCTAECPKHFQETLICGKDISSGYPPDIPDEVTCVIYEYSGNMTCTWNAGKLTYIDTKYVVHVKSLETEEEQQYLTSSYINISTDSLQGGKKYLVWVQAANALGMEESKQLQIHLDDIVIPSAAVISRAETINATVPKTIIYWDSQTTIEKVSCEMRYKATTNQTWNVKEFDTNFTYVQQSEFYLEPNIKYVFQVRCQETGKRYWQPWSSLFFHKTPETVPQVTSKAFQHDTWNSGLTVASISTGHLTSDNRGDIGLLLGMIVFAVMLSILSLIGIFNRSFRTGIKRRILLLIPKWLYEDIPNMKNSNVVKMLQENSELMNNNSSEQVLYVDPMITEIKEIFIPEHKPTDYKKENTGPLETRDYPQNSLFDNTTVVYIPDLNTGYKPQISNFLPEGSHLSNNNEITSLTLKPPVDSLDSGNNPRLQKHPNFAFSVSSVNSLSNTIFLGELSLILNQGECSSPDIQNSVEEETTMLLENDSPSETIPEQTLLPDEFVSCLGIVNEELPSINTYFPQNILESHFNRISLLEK
Test: cell-based or functional assay

Row | Binder | pStat3 HTRF IC50
1 | B1 | 0.603 nM
2 | B2 | 2.69 nM
3 | B3 | 3.24 nM
4 | B4 | 4.52 nM
5 | B5 | 1.48 nM
6 | B6 | 2.5 nM
7 | B7 | 17.7 nM
8 | B8 | 2.78 nM
9 | B9 | 17.1 nM
10 | B10 | 0.849 nM
11 | B11 | 2.17 nM
12 | B12 | 5.97 nM
13 | B13 | 3.88 nM
14 | B14 | 1.61 nM
15 | B15 | 4.43 nM
